Source: paper PMC12341890, “Insights into plastocyanin–cytochrome b6f complex formation: The role of plastocyanin phosphorylation” (Plant Physiology, 2025)

How the values were obtained:
[1] = biological target: cytochrome f (Cytf, PetA), His-tagged, in the isolated cytochrome b6f complex (C. reinhardtii) (UniProt P23577)
[2] = biological target: T1, cytochrome f (Cytf, PetA), His-tagged, in the isolated cytochrome b6f complex (C. reinhardtii, UniProt P23577 32-317); assay: cross-linking; PC (100 µM) preactivated with 5 mM EDC and 10 mM NHS, pH 6.5 (MOPS), 20 min at room temperature; 5 mM ferricyanide added and cross-linker removed; added to isolated Cytb6f (2.7 µM) pre-reduced with 5 mM ascorbate; HEPES 30 mM pH 7.5, MgCl2, tPCCαM; 45 min at room temperature; read by SDS-PAGE (Coomassie, anti-Cytf blot) and by trypsin digestion with LC-MS/MS (MaxQuant and xiSEARCH); details: both partners purified
T1 construct: cytochrome f (PetA) of C. reinhardtii, UniProt P23577; numbers count on: the mature protein (Y32 of P23577 = Y1); Stood in every assay as a subunit of the whole isolated Cytb6f complex, not as an isolated protein; Carries heme f; also called Cytb6f (as the subunit cross-linked); source: C. reinhardtii strain expressing His-tagged PetA; Cytb6f complex purified (tPCCαM solubilisation, NiNTA, …)
T1 sequence (P23577 32-317, one chain of several): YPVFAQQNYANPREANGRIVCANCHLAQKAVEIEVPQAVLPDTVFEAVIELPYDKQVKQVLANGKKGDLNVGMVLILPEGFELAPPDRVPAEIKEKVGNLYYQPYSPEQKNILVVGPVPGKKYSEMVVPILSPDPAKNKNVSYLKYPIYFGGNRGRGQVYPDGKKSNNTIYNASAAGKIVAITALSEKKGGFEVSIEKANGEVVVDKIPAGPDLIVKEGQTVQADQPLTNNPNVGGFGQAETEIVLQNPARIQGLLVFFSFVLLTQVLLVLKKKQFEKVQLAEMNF

Sequence of cytochrome f (Cytf, PetA), His-tagged, in the isolated cytochrome b6f complex (C. reinhardtii) (P23577 32-317, one chain of several): as above

| Binder | half-time of Cytf oxidation in the light (absorbance at 554 nm), isolated Cytb6f and PSI, 1 to 3 µM PC, 5 µM FDX [1] [ms] | binding result [2] |
| --- | --- | --- |
| plastocyanin (PC) S49D, recombinant phosphomimetic variant (natural protein) DATVKLGADSGALEFVPKTLTIKSGETVNFVNNAGFPHNIVFDEDAIPDGVNADAISRDDYLNAPGETYSVKLTAAGEYGYYCEPHQGAGMVGKIIVQ | 120 | – |
| plastocyanin (PC) S49K, recombinant (natural protein, C. reinhardtii, plastocyanin of C. reinhardtii, UniProt P18068, with a point mutation S49K that adds a trypsin site; numbers count on: the mature protein (D48 of P18068 = D1); S49 is S96 in P18068 by the printed offset; Made from the WT Pet17b-PETE plasmid; the methods list codons only for S-to-A, S-to-E and S-to-D; also called mutated S49K PC; source: E. coli, recombinant (as the wild type PC)) DATVKLGADSGALEFVPKTLTIKSGETVNFVNNAGFPHNIVFDEDAIPKGVNADAISRDDYLNAPGETYSVKLTAAGEYGYYCEPHQGAGMVGKIIVQ | – | binds |
